# Legend:
# DRB1*0101 (DR1) = biological target: T1, DRB1*0101 (DR1) (Homo sapiens, UniProt P01903+P01911, A100R/D57E/F55L/F60I/F76Y/I96L/L162R/M171V/P40L/Q125E/R42F/V115G/Y59C); test: HLA class II peptide binding assay; details: for DR1 binding data: Table XIXb, Malaria Super Motif Peptides With Binding Data
# T1 construct: endogenous in cells; host or cells: LG2
# DRB1*0701 (DR7) = biological target: T2, DRB1*0701 (DR7) (Homo sapiens, UniProt P01903+P01911, A100R/A102G/A103Q/D57E/D86V/E43K/F76Y/K127E/L162R/M171V/P40G/Q125H/Q99D/R33Q/R42Y/R54Q/S133A/S66F/T210M/V115G/Y107V/Y59L/Y89S); test: biochemical; format: binding
# T2 construct: endogenous in cells; host or cells: Pitout
# DRB1*0401 (DR4w4) = biological target: T3, DRB1*0401 (DR4w4) (Homo sapiens, UniProt P01903+P01911, A100K/A169T/F76Y/I96L/K127E/L162R/M171V/N62H/P40V/Q125Y/R42H/S133A/S149N/S66Y/V115G/V209L/W38E); test: HLA class II peptide binding assay; details: for DR4w4 binding data: Table XIXb; for DR4w4 binding information: DR3a motif peptides, unit not given, exemplary 15-mer containing the core sequence
# T3 construct: endogenous in cells; host or cells: Preiss
# HLA-A*0301 = biological target: T4, HLA-A*0301 (Homo sapiens, UniProt P04439); test: HLA class I peptide binding assay; details: for A*301 (binding data): Malaria A03 supermotif peptides; for A*0301 (binding information): Table XVI, Malaria A3 motif peptides
# T4 construct: endogenous in cells; host or cells: GM3107
# DRB1*0301 (DR3) = biological target: T5, DRB1*0301 (DR3) (Homo sapiens, UniProt P01903+P01911, A100K/A102G/A103R/A169T/F55Y/I96L/K41T/L162R/M171V/P40S/Q125H/Q178H/Q39Y/R42S/S66N/T106N/T262R/W38E/Y61H); test: HLA class II peptide binding assay (pH 4.5); details: for DR3 binding information: unit not given
# T5 construct: endogenous in cells; host or cells: MAT
# DRB1*0405 (DR4w15) = biological target: T6, DRB1*0405 (DR4w15) (Homo sapiens, UniProt P01903+P01911, A100R/A169T/D86S/F76Y/I96L/K127E/L162R/M171V/N62H/P40V/Q125Y/R42H/S133A/S149N/S66Y/V115G/V209L/W38E); test: HLA class II peptide binding assay; details: for DR4w15 binding data: Table XIXb
# T6 construct: endogenous in cells; host or cells: KT3
# DRB1*1101 (DR5w11) = biological target: T7, DRB1*1101 (DR5w11) (Homo sapiens, UniProt P01903+P01911, A100R/A169T/A87E/I96F/K41T/L162R/M171V/P40S/Q125H/Q178H/Q39Y/Q99D/R42S/S66Y/T262R/V115G/W38E); test: biochemical; format: binding
# T7 construct: endogenous in cells; host or cells: Sweig
# DRB1*1201 (DR5w12) = biological target: T8, DRB1*1201 (DR5w12) (Homo sapiens, UniProt P01903+P01911, A100R/A169T/D57E/D86V/F55L/H45Y/K41T/L162R/M171V/P40S/Q125H/Q178H/Q39Y/Q99D/R42G/S66L/T262R/V114A/V67L/W38E/Y59H/Y61H/Y89S); test: HLA class II peptide binding assay; details: for DR5w12 binding data: Table XIXb
# T8 construct: endogenous in cells; host or cells: Herluf
# DRB1*0802 (DR8w2) = biological target: T9, DRB1*0802 (DR8w2) (Homo sapiens, UniProt P01903+P01911, A100R/A103L/A169T/F76Y/H45Y/I96F/K41T/L162R/M171V/P40S/Q125H/Q178H/Q39Y/Q99D/R218S/R42G/S66Y/V115G/W38E); test: biochemical; format: binding
# T9 construct: endogenous in cells; host or cells: OLL
# DRB5*0101 (DR2w2β2) = biological target: T10, DRB5*0101 (DR2w2β2) (Homo sapiens, UniProt P01903+Q30154); format: binding
# T10 construct: expressed in transfected cells; host or cells: L416.3 (fibroblasts) or GM3107
# [1] = HLA-A*0301 binding value, unit not given
# [2] = binding value for HLA-A*0301, unit not given
# [3] = DR3a motif peptides, exemplary 15-mer containing the core sequence
# [4] = binding value to HLA-A*0301, unit not given
# [5] = DR3a motif peptides, unit not given, exemplary 15-mer containing the core sequence
# T7 sequence (P01903 26-254, other chains not shown): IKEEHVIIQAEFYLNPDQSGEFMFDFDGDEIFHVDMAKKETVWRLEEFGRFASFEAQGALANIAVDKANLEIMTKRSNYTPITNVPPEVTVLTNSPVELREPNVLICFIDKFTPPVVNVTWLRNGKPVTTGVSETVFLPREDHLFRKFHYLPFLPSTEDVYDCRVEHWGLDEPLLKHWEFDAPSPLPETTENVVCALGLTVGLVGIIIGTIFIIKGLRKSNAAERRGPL
# T1 sequence (P01903 26-254 partner, other chains not shown): as the sequence (P01903 26-254, other chains not shown) above
# T3 sequence (P01903 26-254 partner, other chains not shown): as the sequence (P01903 26-254, other chains not shown) above
sequence,measurement,setting,value
FDLFLVNGR,DR1 binding data,DRB1*0101 (DR1),0.0042
same,DR7 binding data,DRB1*0701 (DR7),0.0470
same,DR4w4 binding data,DRB1*0401 (DR4w4),0.0036
QSKLEQERR,A*301 (binding data),"HLA-A*0301; binding value, no unit given",0.0002
LGEEDKDLD,DR3 binding information,DRB1*0301 (DR3); Malaria DR3b motif peptides,-0.0130
FQEYQCYGS,DR4w15 binding data,DRB1*0405 (DR4w15),-0.0009
same,DR5w11 binding data,DRB1*1101 (DR5w11),-0.0002
same,DR5w12 binding data,DRB1*1201 (DR5w12),0.0001
same,DR8w2 binding data,DRB1*0802 (DR8w2),0.0005
same,DR1 binding data,DRB1*0101 (DR1),0.0001
same,DR7 binding data,DRB1*0701 (DR7),-0.0003
same,DR4w4 binding data,DRB1*0401 (DR4w4),0.0053
same,DR2w2β2 binding data,DRB5*0101 (DR2w2β2),-0.0005
INEEKHEKK,DR3 binding information,DRB1*0301 (DR3); Malaria DR3b motif peptides,0.0420
MTTNVEGR,A*0301 (binding information),HLA-A*0301; [1],0.0002
DTKIMERK,A*0301 (binding information),HLA-A*0301; [2],0.0001
FDGDNEILQ,DR3 binding information,DRB1*0301 (DR3); [3],0.0640
VTPEQPQGD,DR3 binding information,DRB1*0301 (DR3); [3],-0.0033
AEKTNKGTG,DR3 binding information,DRB1*0301 (DR3); Malaria DR3b motif peptides,-0.0033
DIPICKPENKH,A*0301 (binding information),HLA-A*0301; [4],0.0002
FLVNGRDVQ,DR3 binding information,DRB1*0301 (DR3); Malaria DR3b motif peptides,-0.0033
CGKGIRSRKR,A*0301 (binding information),HLA-A*0301; [4],0.0002
VWDEWSPCS,DR4w15 binding information,DRB1*0405 (DR4w15); [5],-0.0009
same,DR5w11 binding information,DRB1*1101 (DR5w11),-0.0002
same,DR5w12 binding information,DRB1*1201 (DR5w12); [5],0.0001
same,DR8w2 binding information,DRB1*0802 (DR8w2),-0.0003
same,DR1 binding information,DRB1*0101 (DR1); [5],0.0001
same,DR7 binding information,DRB1*0701 (DR7),-0.0003
same,DR3 binding information,DRB1*0301 (DR3); [3],-0.0041
same,DR4w4 binding information,DRB1*0401 (DR4w4),-0.0009
same,DR2w2β2 binding information,DRB5*0101 (DR2w2β2),-0.0005
YKNDKQVNK,DR3 binding information,DRB1*0301 (DR3); [3],-0.0033
KILSVFFLA,A*0301 (binding information),HLA-A*0301; [2],0.1400
LSEEKIKKG,DR3 binding information,DRB1*0301 (DR3); [3],-0.0033
LEEKAAKET,DR4w15 binding data,DRB1*0405 (DR4w15),-0.0009
same,DR5w11 binding data,DRB1*1101 (DR5w11),-0.0002
same,DR5w12 binding data,DRB1*1201 (DR5w12),0.0001
same,DR8w2 binding data,DRB1*0802 (DR8w2),-0.0002
same,DR1 binding data,DRB1*0101 (DR1),0.0001
same,DR7 binding data,DRB1*0701 (DR7),-0.0003
same,DR4w4 binding data,DRB1*0401 (DR4w4),-0.0009
same,DR2w2β2 binding data,DRB5*0101 (DR2w2β2),-0.0005
NTEKGFHPFK,A*0301 (binding information),HLA-A*0301; [2],0.0047
IQNHTLETV,DR4w15 binding data,DRB1*0405 (DR4w15),-0.0014
same,DR5w11 binding data,DRB1*1101 (DR5w11),-0.0002
same,DR5w12 binding data,DRB1*1201 (DR5w12),0.0001
same,DR8w2 binding data,DRB1*0802 (DR8w2),-0.0003
same,DR1 binding data,DRB1*0101 (DR1),0.0001
same,DR7 binding data,DRB1*0701 (DR7),-0.0003
same,DR3 binding data,"DRB1*0301 (DR3); Table XIXb, DR3",-0.0041
same,DR4w4 binding data,DRB1*0401 (DR4w4),-0.0007
same,DR2w2β2 binding data,DRB5*0101 (DR2w2β2),-0.0005
LVGCHPSDOK (LVGCHPSDGK),A*0301 (binding information),HLA-A*0301; [4],0.0004
NSRNRKNEEK,A*0301 (binding information),HLA-A*0301; [1],0.0004
VQYDNFQDE,DR3 binding information,DRB1*0301 (DR3); [3],-0.0033
VLNELNYDN,DR3 binding information,DRB1*0301 (DR3); [3],-0.0033
LVTVFLIFF,DR1 binding data,DRB1*0101 (DR1),0.0001
same,DR7 binding data,DRB1*0701 (DR7),0.0010
same,DR4w4 binding data,DRB1*0401 (DR4w4),0.0030
LFQEYQCYG,DR3 binding information,DRB1*0301 (DR3); [3],0.0082
QVRICHLNDR,A*0301 (binding information),HLA-A*0301; [4],0.0005
IKSNLRSGS,DR3 binding information,DRB1*0301 (DR3); Malaria DR3b motif peptides,0.0050
VEKTASCGV,DR4w15 binding data,DRB1*0405 (DR4w15),-0.0009
same,DR5w11 binding data,DRB1*1101 (DR5w11),-0.0002
same,DR5w12 binding data,DRB1*1201 (DR5w12),0.0001
same,DR8w2 binding data,DRB1*0802 (DR8w2),0.0005
same,DR1 binding data,DRB1*0101 (DR1),0.0004
same,DR7 binding data,DRB1*0701 (DR7),0.0095
same,DR4w4 binding data,DRB1*0401 (DR4w4),0.0021
same,DR2w2β2 binding data,DRB5*0101 (DR2w2β2),-0.0009
VEVNKRKSK,DR3 binding information,DRB1*0301 (DR3); Malaria DR3b motif peptides,0.0880
RINEEKNEKK,A*0301 (binding information),HLA-A*0301; [1],0.0024
IKKEEELVE,DR3 binding information,DRB1*0301 (DR3); [3],-0.0033
LLIFHINKGK,A*301 (binding data),"HLA-A*0301; binding value, no unit given",0.0260
QSQDNNONRH (QSQDNNGNRH),A*0301 (binding information),HLA-A*0301; [4],0.0004
ESLAEKTNIC,A*0301 (binding information),HLA-A*0301; [2],0.0001
LPQDNRGNS,DR3 binding information,DRB1*0301 (DR3); Malaria DR3b motif peptides,-0.0033
VDLYLLMDC,DR4w15 binding data,DRB1*0405 (DR4w15),-0.0009
same,DR5w11 binding data,DRB1*1101 (DR5w11),-0.0002
same,DR5w12 binding data,DRB1*1201 (DR5w12),0.0001
same,DR8w2 binding data,DRB1*0802 (DR8w2),-0.0003
same,DR1 binding data,DRB1*0101 (DR1),0.0001
same,DR7 binding data,DRB1*0701 (DR7),-0.0003
same,DR4w4 binding data,DRB1*0401 (DR4w4),0.0028
same,DR2w2β2 binding data,DRB5*0101 (DR2w2β2),-0.0005
LEQERLAKE,DR3 binding information,DRB1*0301 (DR3); [3],-0.0033
VPSDVPKNP,DR4w4 binding information,DRB1*0401 (DR4w4),-0.0130
DLERTICASK,A*301 (binding data),"HLA-A*0301; binding value, no unit given",0.0001
VPCGKGTISR,A*301 (binding data),HLA-A*0301; Table IX,0.0004
FKPNDKSLY,DR3 binding information,DRB1*0301 (DR3); Malaria DR3b motif peptides,0.1700
NSEKDFIKK,A*0301 (binding information),HLA-A*0301; [1],0.0002
